Earlier results, collected in patent US5624831A, “Immobilized acetylcholinesterase stabilized by a film of gelatin or albumin containing trehalose” (priority 1994, dated 1997).

Tested on: acetylcholinesterase extracted from the torpedo fish
Conditions: kept dry at 4° C. for longer than 7 days

B1: acetylcholinesterase extracted from the torpedo fish: acetylcholinesterase extracted from the torpedo fish (protein, UniProt P04058 22-564, looked up)
Acetylcholinesterase: DDHSELLVNTKSGKVMGTRVPVLSSHISAFLGIPFAEPPVGNMRFRRPEPKKPWSGVWNASTYPNNCQQYVDEQFPGFSGSEMWNPNREMSEDCLYLNIWVPSPRPKSTTVMVWIYGGGFYSGSSTLDVYNGKYLAYTEEVVLVSLSYRVGAFGFLALHGSQEAPGNVGLLDQRMALQWVHDNIQFFGGDPKTVTIFGESAGGASVGMHILSPGSRDLFRRAILQSGSPNCPWASVSVAEGRRRAVELGRNLNCNLNSDEELIHCLREKKPQELIDVEWNVLPFDSIFRFSFVPVIDGEFFPTSLESMLNSGNFKKTQILLGVNKDEGSFFLLYGAPGFSKDSESKISREDFMSGVKLSVPHANDLGLDAVTLQYTDWMDDNNGIKNRDGLDDIVGDHNVICPLMHFVNKYTKFGNGTYLYFFNHRASNLVWPEWMGVIHGYEIEFVFGLPLVKELNYTAEEEALSRRIMHYWATFAKTGNPNEPHSQESKWPLFTTKEQKFIDLNTEPMKVHQRLRVQMCVFWNQFLPKLLNATACDGELSS
loss of enzymatic activity (in words): looses normally all its enzymatic activity
